Experimental data published in PMC3045582.
Read-outs that look alike come from different tables or passages of the source.

T1: Hpy188I restriction endonuclease (native Met) (UniProt Q9KJ88 1-170)
T1 sequence: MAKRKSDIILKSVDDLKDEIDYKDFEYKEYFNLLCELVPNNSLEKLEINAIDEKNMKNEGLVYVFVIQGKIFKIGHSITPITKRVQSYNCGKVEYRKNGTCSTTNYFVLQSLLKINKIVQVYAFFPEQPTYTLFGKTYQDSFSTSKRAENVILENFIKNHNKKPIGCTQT

T2: Hpy188I restriction endonuclease (selenomethionine variant) (UniProt Q9KJ88 1-170)
T2 sequence: T1 sequence

B1: 9-mer target oligoduplex (uncleaved) (dsDNA)
DNA 1: GATCTGAAC
DNA 2: GTTCAGATC
B2: 9-mer target oligoduplex cleaved in crystal at TCN|GA (product) (dsDNA)
DNA 1: GATCT
DNA 2: GAAC
DNA 3: GTTCA
DNA 4: GATC

Assays:
[1] = biological target: T1, Hpy188I restriction endonuclease …; test: co-crystallization
[2] = biological target: T2, Hpy188I restriction endonuclease …; test: X-ray crystallography
[3] = biological target: T2, Hpy188I restriction endonuclease …; test: X-ray crystallography; remark: listed apart in the source

Binder | binding result [1] | binding result [2] | binding result [3]
B1 | binds | binds | –
B2 | – | – | binds
